Laboratory results from US20130065278A1 (SPIBER TECHNOLOGIES, published 2013).

Key:
NT-REP4-CT = target: T1, NT-REP4-CT; test: capture of soluble protein on fiber at pH 6, release at pH 7, SDS-PAGE; 300 mM NaCl decreased capture
T1 construct: also called NT4RepCT; NT-REP4-CT fiber
T1 chain: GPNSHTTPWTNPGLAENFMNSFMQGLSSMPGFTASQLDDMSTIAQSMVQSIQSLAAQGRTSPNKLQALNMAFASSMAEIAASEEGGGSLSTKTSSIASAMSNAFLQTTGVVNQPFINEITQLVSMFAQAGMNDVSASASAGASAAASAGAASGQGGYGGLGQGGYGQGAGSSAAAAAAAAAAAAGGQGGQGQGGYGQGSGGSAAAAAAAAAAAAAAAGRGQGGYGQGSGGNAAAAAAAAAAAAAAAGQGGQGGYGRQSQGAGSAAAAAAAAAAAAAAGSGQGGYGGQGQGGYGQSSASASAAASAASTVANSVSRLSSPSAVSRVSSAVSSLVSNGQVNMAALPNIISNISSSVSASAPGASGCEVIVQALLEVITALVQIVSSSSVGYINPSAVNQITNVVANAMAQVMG
Procedure: (§1) Fibers (˜0.5 cm long, ˜50 μg) of NT-REP₄-CT (SEQ ID NO 20), NT₂-REP₄-CT (SEQ ID NO 23) and REPO-CT (SEQ ID NO 2, control) were submerged in 100 μl solution of 5 mg/ml soluble NTHis (SEQ ID NO 32) or NT₂-Brichos (SEQ ID NO 34) at pH 8 for 10 minutes. The pH was decreased by addition of 400 μl sodium phosphate buffer (NaP) to pH 6 and incubated for 10 minutes to allow assembly of soluble NT to the fiber. The fibers were transferred to 500 μl of NaP at pH 6, and washed twice. Finally, the fibers were transferred to 500 μl of NaP at pH 7, and incubated 10 minutes to allow release of soluble NT. The same was done in the presence of 300 mM NaCl in all pH 6 NaP buffers. Samples from the different solutions were analysed on SDS-PAGE.

NT2-REP4-CT = target: T2, NT2-REP4-CT; test: as above
T2 construct: also called NTNT-REP4-CT; HisNTNT4RepCT
T2 chain: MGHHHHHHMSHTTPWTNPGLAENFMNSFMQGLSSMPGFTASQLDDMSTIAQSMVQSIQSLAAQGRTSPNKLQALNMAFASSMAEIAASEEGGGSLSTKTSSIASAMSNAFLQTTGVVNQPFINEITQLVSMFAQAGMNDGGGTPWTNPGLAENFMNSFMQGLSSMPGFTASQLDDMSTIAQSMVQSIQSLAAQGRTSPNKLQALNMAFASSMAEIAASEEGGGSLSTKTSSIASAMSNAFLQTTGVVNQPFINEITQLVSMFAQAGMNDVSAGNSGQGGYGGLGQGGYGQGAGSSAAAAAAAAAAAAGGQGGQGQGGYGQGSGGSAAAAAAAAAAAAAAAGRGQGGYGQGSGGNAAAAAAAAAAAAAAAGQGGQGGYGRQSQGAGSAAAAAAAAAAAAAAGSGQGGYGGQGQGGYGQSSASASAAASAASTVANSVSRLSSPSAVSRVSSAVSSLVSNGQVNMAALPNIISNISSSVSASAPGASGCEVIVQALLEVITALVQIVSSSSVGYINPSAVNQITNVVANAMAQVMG
Procedure: as §1

Row | Binder | binding result (NT-REP4-CT) | binding result (NT2-REP4-CT)
1 | NTHis (other, also called soluble NTHis; NT protein) MSHTTPWTNPGLAENFMNSFMQGLSSMPGFTASQLDDMSTIAQSMVQSIQSLAAQGRTSPNKLQALNMAFASSMAEIAASEEGGGSLSTKTSSIASAMSNAFLQTTGVVNQPFINEITQLVSMFAQAGMNDVSASASAGASAAASAGAAALEHHHHHH | binds | binds
2 | NT2-Brichos (other, also called NT-NT-Brichos; HisNTNTBrichos) MGHHHHHHMSHTTPWTNPGLAENFMNSFMQGLSSMPGFTASQLDDMSTIAQSMVQSIQSLAAQGRTSPNKLQALNMAFASSMAEIAASEEGGGSLSTKTSSIASAMSNAFLQTTGVVNQPFINEITQLVSMFAQAGMNDGGGTPWTNPGLAENFMNSFMQGLSSMPGFTASQLDDMSTIAQSMVQSIQSLAAQGRTSPNKLQALNMAFASSMAEIAASEEGGGSLSTKTSSIASAMSNAFLQTTGVVNQPFINEITQLVSMFAQAGMNDVSAGNSEHLVTTATFSIGSTGLVVYDYQQLLIAYKPAPGTCCYIMKIAPESIPSLEALTRKVHNFQMECSLQAKPAVPTSKLGQAEGRDAGSAPSGGDPAFLGMAVSTLCGEVPLYYI | binds | binds
